Target: integrin αvβ3 expressed on primary human brain endothelial cells (ECs) (human (endogenous in primary brain ECs)) (UniProt P06756)
Chain of UniProt P06756 (P06756 31-1048, chain 1 of 2): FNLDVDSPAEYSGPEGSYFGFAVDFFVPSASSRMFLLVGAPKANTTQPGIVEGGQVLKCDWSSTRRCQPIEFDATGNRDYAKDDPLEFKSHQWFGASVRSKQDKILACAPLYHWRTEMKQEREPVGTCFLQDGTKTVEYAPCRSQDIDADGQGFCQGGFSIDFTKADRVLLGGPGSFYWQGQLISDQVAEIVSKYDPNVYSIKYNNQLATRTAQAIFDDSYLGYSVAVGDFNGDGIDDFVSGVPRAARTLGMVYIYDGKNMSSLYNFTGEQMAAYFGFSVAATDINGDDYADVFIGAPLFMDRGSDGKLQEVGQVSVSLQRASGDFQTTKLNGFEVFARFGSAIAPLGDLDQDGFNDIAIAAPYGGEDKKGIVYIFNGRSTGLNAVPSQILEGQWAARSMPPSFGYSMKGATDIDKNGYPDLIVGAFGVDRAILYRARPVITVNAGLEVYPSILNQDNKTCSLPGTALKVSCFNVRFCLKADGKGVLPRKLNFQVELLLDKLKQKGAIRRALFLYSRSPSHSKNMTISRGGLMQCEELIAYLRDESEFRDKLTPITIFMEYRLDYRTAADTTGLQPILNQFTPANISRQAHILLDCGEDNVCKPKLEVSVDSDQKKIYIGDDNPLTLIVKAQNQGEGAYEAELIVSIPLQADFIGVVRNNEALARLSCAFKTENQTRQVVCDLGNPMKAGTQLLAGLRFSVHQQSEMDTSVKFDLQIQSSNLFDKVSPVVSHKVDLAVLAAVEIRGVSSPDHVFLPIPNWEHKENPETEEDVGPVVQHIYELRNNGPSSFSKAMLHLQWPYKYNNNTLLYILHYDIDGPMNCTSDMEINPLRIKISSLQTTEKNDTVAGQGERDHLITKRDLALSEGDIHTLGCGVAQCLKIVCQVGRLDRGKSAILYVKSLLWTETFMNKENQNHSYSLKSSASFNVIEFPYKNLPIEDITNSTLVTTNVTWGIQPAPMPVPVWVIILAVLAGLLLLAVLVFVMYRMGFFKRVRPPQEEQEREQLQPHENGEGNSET
Chain of UniProt P06756 (P05106 27-788, chain 2 of 2, further chain): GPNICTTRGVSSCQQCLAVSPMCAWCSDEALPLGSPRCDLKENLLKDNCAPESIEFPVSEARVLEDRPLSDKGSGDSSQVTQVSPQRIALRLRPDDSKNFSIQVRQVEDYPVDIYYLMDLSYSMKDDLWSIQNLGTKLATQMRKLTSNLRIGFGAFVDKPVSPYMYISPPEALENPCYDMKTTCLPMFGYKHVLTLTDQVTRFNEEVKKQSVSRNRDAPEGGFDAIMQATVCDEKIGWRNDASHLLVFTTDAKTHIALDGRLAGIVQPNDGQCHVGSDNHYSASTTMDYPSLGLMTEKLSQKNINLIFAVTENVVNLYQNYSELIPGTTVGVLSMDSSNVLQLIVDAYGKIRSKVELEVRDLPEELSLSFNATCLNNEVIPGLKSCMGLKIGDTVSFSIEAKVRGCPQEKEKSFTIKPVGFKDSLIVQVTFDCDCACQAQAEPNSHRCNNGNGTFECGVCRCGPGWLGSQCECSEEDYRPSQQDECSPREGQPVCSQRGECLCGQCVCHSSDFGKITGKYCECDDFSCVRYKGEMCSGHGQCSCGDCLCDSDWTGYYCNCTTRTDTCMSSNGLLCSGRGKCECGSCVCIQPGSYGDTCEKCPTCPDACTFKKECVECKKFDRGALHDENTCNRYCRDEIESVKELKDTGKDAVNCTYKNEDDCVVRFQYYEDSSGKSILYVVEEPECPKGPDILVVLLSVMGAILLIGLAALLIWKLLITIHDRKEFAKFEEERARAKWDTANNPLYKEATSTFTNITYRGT

cell-cell adhesion of GFP-CSCs (08387) to a confluent EC monolayer after pre-incubation of ECs with a neutralizing antibody to integrin αvβ3; percent reduction of CSC adhesion: 43%
Substance: L1CAM expressed on cancer stem-like cells (CSCs) from glioblastoma (from UniProt P32004 20-1257) (receptor)

Source: article PMC5190064
